This is an account of results in patent publication US20050203025A1.

The target in experiment [1] is desmocollin (on Fsk-7.1 mouse mammary epithelial cells) (mouse). The experiment is described as follows: cell-based or functional assay.
Experiment [2] deals with desmoglein (on Fsk-7.1 mouse mammary epithelial cells) (mouse). Put plainly: cell-based or functional assay.

B1: Ac-CYATC-NH2 (SEQ ID NO: 4683) (peptide)
peptide: Ac-CYATC-NH2
modifications: also: cyclic peptide, bond of cyclisation not given here
With B1, in experiment [1], the % (single cells + clusters <4 cells); alveolar aggregate formation of Fsk-7.1 cells, 24 hr, no desmoglein peptide amounted to 18.2%; the % (single cells + clusters <4 cells); alveolar aggregate formation of Fsk-7.1 cells, 24 hr, together with Ac-CRALC-NH2 was found to be 19.6%; the % (single cells + clusters <4 cells); alveolar aggregate formation of Fsk-7.1 cells, 24 hr, together with H-…-OH was 58.6%.

B2: H-…-OH (SEQ ID NO: 5284) (peptide)
peptide: H-LTAFATTPDG-OH
For the molecule B2, in experiment [1], the % (single cells + clusters <4 cells); alveolar aggregate formation of Fsk-7.1 cells, 24 hr, no desmoglein peptide was 28% and the % (single cells + clusters <4 cells); alveolar aggregate formation of Fsk-7.1 cells, 24 hr, together with H-…-OH worked out at 36.5%.

B3: Ac-CRALC-NH2 (SEQ ID NO: 4236) (peptide)
peptide: Ac-CRALC-NH2
modifications: also: cyclic peptide, bond of cyclisation not given here
Take B3: in experiment [2], the % (single cells + clusters <4 cells); alveolar aggregate formation of Fsk-7.1 cells, 24 hr, no desmocollin peptide turned out to be 12.9%; the % (single cells + clusters <4 cells); alveolar aggregate formation of Fsk-7.1 cells, 24 hr, together with Ac-CFATC-NH2 is 33.6%; the % (single cells + clusters <4 cells); alveolar aggregate formation of Fsk-7.1 cells, 24 hr, together with Ac-CYASC-NH2 came to 37.2%; the % (single cells + clusters <4 cells); alveolar aggregate formation of Fsk-7.1 cells, 24 hr, together with Ac-CYATC-NH2 came out at 19.6%.

B4: H-…-OH (SEQ ID NO: 5283) (peptide)
peptide: H-LTGYALDSRG-OH
With B4, in experiment [2], the % (single cells + clusters <4 cells); alveolar aggregate formation of Fsk-7.1 cells, 24 hr, no desmocollin peptide worked out at 21.7%; the % (single cells + clusters <4 cells); alveolar aggregate formation of Fsk-7.1 cells, 24 hr, together with Ac-CFATC-NH2 is 39.5%; the % (single cells + clusters <4 cells); alveolar aggregate formation of Fsk-7.1 cells, 24 hr, together with Ac-CYASC-NH2 came to 57.2%; the % (single cells + clusters <4 cells); alveolar aggregate formation of Fsk-7.1 cells, 24 hr, together with Ac-CYATC-NH2 amounted to 58.6%. In experiment [2], the % (single cells + clusters <4 cells); alveolar aggregate formation of Fsk-7.1 cells, 24 hr, together with H-…-OH stood at 36.5%.

B5: Ac-CYASC-NH2 (SEQ ID NO: 5156) (peptide)
peptide: Ac-CYASC-NH2
modifications: also: cyclic peptide, bond of cyclisation not given here
For the molecule B5, in experiment [1], the % (single cells + clusters <4 cells); alveolar aggregate formation of Fsk-7.1 cells, 24 hr, no desmoglein peptide stood at 12.9%; the % (single cells + clusters <4 cells); alveolar aggregate formation of Fsk-7.1 cells, 24 hr, together with Ac-CRALC-NH2 is 37.2%; the % (single cells + clusters <4 cells); alveolar aggregate formation of Fsk-7.1 cells, 24 hr, together with H-…-OH is 57.2%.

B6: Ac-CFATC-NH2 (SEQ ID NO: 5009) (peptide)
peptide: Ac-CFATC-NH2
modifications: also: cyclic peptide, bond of cyclisation not given here
Turning to B6, in experiment [1], the % (single cells + clusters <4 cells); alveolar aggregate formation of Fsk-7.1 cells, 24 hr, no desmoglein peptide came out at 13.1%; the % (single cells + clusters <4 cells); alveolar aggregate formation of Fsk-7.1 cells, 24 hr, together with Ac-CRALC-NH2 was 33.6%; the % (single cells + clusters <4 cells); alveolar aggregate formation of Fsk-7.1 cells, 24 hr, together with H-…-OH amounted to 39.5%.
